Test results: the supplement of paper PMC9170038

Tested on: K4 kissing-loop RNA reporter
Assay: apparent KD of K4 kissing-loop reporter; higher = weaker reporter binding
Details: Eterna round: R107; input ligand: FMN 200 uM
Experimental: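 RNA-MaP round R107: designed RNA switches with theophylline, tryptophan, arginine or FMN aptamers are transcribed on-chip within common flanks. They are titrated with a labelled K4 kissing-loop RNA reporter in RNA-MaP buffer (100 mM Tris pH 7.5, 80 mM KCl, 4 mM MgCl2), without ligand or with the indicated ligand. Median apparent KD per design.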
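Further: bound reporter read as fluorescence of individual clusters on recovered sequencing chips by microscopy, with normalized cluster intensities fitted with a binding model.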

Row | Sequence | apparent KD of K4 kissing-loop reporter [nM]
1 | CCGCCAUCAUCAGAUACCAGGCUGAUGGCGGUAACCGCCAAGCGAGUGAUGUUCGCAUCAGUCCCUUGGCAGCUGAUGAAGACUG [#15 K4 Theophylline B Same State] | 194
2 | GAGGUUUACGUAGGAUAUCGGUAAUGAGUAGAUGGAGUGAUGUUCCGAAAUUGAAUAGGAGAUGGGCGAGAAGGGCGGAUUAAGC [whbob_SS_FMNB__2th204] | 82.1
3 | GCCGUAGAUUGAAGGAGCGGUAUGGGCGGUGGCUGAGUGAUGUUCAGGAAAAGUGGCUUCUACCAGGUAGGUCGCAAUCUACGGC | 108
4 | ACACUUUACGUAGGAUAUGCGACGAGUGAUGUUCGUCAGGCGGCUUUAGAUUAAACAAGCCGCCUAGCAGAAGGACGGGCAGUGU [Zaorleon] | 126
5 | UCUGCUGUAUAUGAUACCAGCAGUGAGAGACAGGAAGUAUAGUGAUGUUAUAUGAGAGAAUGCCCUUGGCAGCGUGUGCGGGUGG [SSTheophylB.Y] | 119
6 | AAGUGUGUGGCGGCCGCCACUAGUAUCCAGUGAUGUUGGAGAUAUCACGUAAGUGAUAUCCUACAUAGGACCGGGCCAUAUAGAA [Same State - Tryptophan B (Freestyle 20)] | 392
7 | AACGUUUUGUGAAGGAGCGCGAUAAGCAGUGAUGUUGCUUACUAUCAAUUUAUAUUUUACACGCAGGUAGGUCGCACAAUACGUA [JR_SSArginiB_Sub018] | 159
8 | AAAGUUGAUGAGUUGGGUAUGUGUUCCGAAGGAGCGAGAUUUAUCUCAGGUAGGUCGCGGAACUUGAGUGAUGUUCAUGUAUAAA [KL-XArg-A9 #analogue] | 356
9 | AAACAUUGGUCUGAUACCAGCUUGAUCGGAAAACGAUCUGCUGGAGUGAUGUUCCAAUAAAGCCCUUGGCAGCAGACCGAUGAAA [MAT - Same State Theophlline B - Mod of Eli - D13] | 823
10 | UGGCAGGUAUCGGCCGCCACUUUCUAGUACAUACGCAUAUCUUUACCAUCAGUGAUGUUGAUCAUAAGGACCGGGAUACAUCAGG [theeternabot_exclusion_KL_Trp_B_22] | 243
11 | UGUCAUUGGUCUGAUACCAGUUAGACCGAUAAGGUCAAAACUGGAGUGAUGUUCCCAAAUAACCCUUGGCAGCAGACCGAUGACU [TheoBS 5 #SwitchBubble #StaticStem] | 452
12 | AGGUUUUGAUUAGGAUAUGCAUUGACGAUGAGAAUAUAGUGAUGUUAUAUACUACGAAUUAGUAAAGUAGAAGGGAUUGAGGUUU [SSFMNB.aA] | 353
13 | AAGAAGGUCAAAGACCUUCGUGCACGUGAUACCAGUCGCGAAAGCGACCCUUGGCAGCACGGCAGUGAUGUUGCCAAGUGCACAA [#12 K4 Theophylline A Same State] | 407
14 | UAAUCCUAGUGAUACUUAUCAAGUGGUGGGCGAGGACCGGUACGGCCGCCACUCGAAUAUGCAGUGAUGUUGUAAUCCGGAUAAU [Exclusion - Tryptophan A (Freestyle 8)] | 668
15 | GAUAAUAGCACGGCCGCCACUGAAAAGCCGUGCUAUACGAGUGAUGUUCGUAAUUAUACGGGAUUCAGGACCGGGUGCAACGGUA [Tryp B SS t1] | 122
16 | AAUGCAUAGUGAAGGAGCGCGAUAAGCAGUGAUGUUGCUUAGCUAUUAUUCAUUAUUUUAACGCAGGUAGGUCGCACUUUGCAUA [JR_ExcArginiB_Sub015] | 131

Row | Sequence | apparent KD of K4 kissing-loop reporter [nM]
17 | UCCAGCAGUACUGAUACCAGACUGCAUGUAGUGAUGUUGCAUAAGGGCAUAGAUGUCUCAGUCCCUUGGCAGCAGUACUGUUGCA [Theo B SS t1] | 317
18 | UGACUGGACUGAAGGAGCGUUCAGGUAGGUCGCUAUGGAGUGAUGUUCCAUAGAAGGAGCGAACAGGUAGGUCGCAGUCUAGUCU [ArgBS 30 #DoubleAptamer #SwitchBubble] | 181
19 | AAUCUCCUAGUGAUGUUAGGUUUAAGGGAAGGAGCGAGGUAAUACUCAGGUAGGUCGCCCACAUGCAUUAAUAAAUCAAUUUAAU | 102
20 | UGUCAUUGGUCUGAUACCAGCUGAUCGGAAACGAUCAUGCUGGAGUGAUGUUCCAGGAAAAGCCCUUGGCAGCAGACCGAUGACU [TheoBS 11 #SwitchBubble #StaticStem] | 474
21 | AAUGUGCAGGGAAGGAGCGUAGUCCAGUGCUGUUGGAGUUAGAUACCAGUGAUGUUGGUUAUACAGGUAGGUCGCCCUAGAGCGC [whbob_Ex_Arginine_B_2th162] | 114
22 | GGAUAGGAUAGAGGAUAUGGAUUAGGCAAGAAUAACUUGUCAUGUAAAUCCAUGAGGAGUGAUGUUCCAGAAGGCUGUCCUAUCG [MatMod 7 - Jieux - Exclusion - FMN B] | 349
23 | AUCUCGGUAUCAGAUACCAGACUAUCGAUACCGAGUGUAUCGGGUAGUGAUGUUACCAUAGUCCCUUGGCAGCUGGUAGUUCAUA [Theo B SS t9c] | 256
24 | CCGAAGAACCAGUGAUGUUGGUUGACUAGACAGGAUAUGAGCAACAUCAGAAGGGUCUGGCUUCGGGAGUGGGUCGCGCUGACCU [Geeredin] | 276
25 | AGAACUGUCUGAGAUACCAGCCGAGGAGUGAUGUUCCGGCUCGACGAAACGUCGAGCCACGGCCCUUGGCAGCUCAGACAGUUCA [Omei KL Theo B SS A v1] | 1360
26 | UCGCGUCUGCGAGGAUAUCGGAUUAGAGUGAUGUUCUAUAAACGCCCAGUGAUGUUGGAUGCGAUACGAGAAGGCGCUGGGCGCA [Same State FMN B GF8] | 178
27 | AUCGGGAAUACGGCCGCCACUAUAGAGGCGACUACAUACCACCACAGUGAUGUUGUGCUGACCAGUAGGACCGGGUAAAAUCGAU [theeternabot_exclusion_KL_Trp_B_49] | 817
28 | GACAUACCUAUGGAGGGCCGAUCGAACAAACGAGGACCGGUACGGCCGCCACUCGUGGGCAGUGAUGUUGACCCUGGGAGGUAAG | 373
29 | AUAAAUAAUAAUGACUGAGAGUUUGGUGAGCGAGGACCGGUACGGCCGCCACUCGUACAUGAGUGAUGUUCUUGUAUGAGUCAGA [KL-XTryp-A6 #analogue] | 127
30 | UGUCAUUGGUCGGCCGCCACUUCAAAGAGAGUGAUGUUCUUAAAGACGGAUCGAAAGAUCUGUCGAAGGACCGGGACCGAUGACU [TrypBS 17 #SwitchBubble #StaticStem] | 1770
31 | CGCAGUGAUGUUGCGAGUUAAUUCAGGGAAGGAGCGCCACAGAUGGCAGGUAGGUCGCCCACGCAGUGAUGUUGCGUAUUCGGGU [Exclusion Arginine A GF 4] | 94.3
32 | AUAGGCAUAGCCCGAGUGAUGUUCGACGAUACCAGCCUCGAUAGAGGCCCUUGGCAGCGUAAAUGAUCAUGAAGCCAAGGAAUAA [whbob_Ex_Theo_A_th69] | 342

Same assay, conditions: Eterna round: R107; input ligand: arginine 13.2 mM

Row | Sequence | apparent KD of K4 kissing-loop reporter [nM]
33 | CCGCCAUCAUCAGAUACCAGGCUGAUGGCGGUAACCGCCAAGCGAGUGAUGUUCGCAUCAGUCCCUUGGCAGCUGAUGAAGACUG [#15 K4 Theophylline B Same State] | 94.3
34 | GAGGUUUACGUAGGAUAUCGGUAAUGAGUAGAUGGAGUGAUGUUCCGAAAUUGAAUAGGAGAUGGGCGAGAAGGGCGGAUUAAGC [whbob_SS_FMNB__2th204] | 91.6
35 | GCCGUAGAUUGAAGGAGCGGUAUGGGCGGUGGCUGAGUGAUGUUCAGGAAAAGUGGCUUCUACCAGGUAGGUCGCAAUCUACGGC | 103
36 | ACACUUUACGUAGGAUAUGCGACGAGUGAUGUUCGUCAGGCGGCUUUAGAUUAAACAAGCCGCCUAGCAGAAGGACGGGCAGUGU [Zaorleon] | 147
37 | UCUGCUGUAUAUGAUACCAGCAGUGAGAGACAGGAAGUAUAGUGAUGUUAUAUGAGAGAAUGCCCUUGGCAGCGUGUGCGGGUGG [SSTheophylB.Y] | 111
38 | AAGUGUGUGGCGGCCGCCACUAGUAUCCAGUGAUGUUGGAGAUAUCACGUAAGUGAUAUCCUACAUAGGACCGGGCCAUAUAGAA [Same State - Tryptophan B (Freestyle 20)] | 391
39 | AACGUUUUGUGAAGGAGCGCGAUAAGCAGUGAUGUUGCUUACUAUCAAUUUAUAUUUUACACGCAGGUAGGUCGCACAAUACGUA [JR_SSArginiB_Sub018] | 135
40 | AAAGUUGAUGAGUUGGGUAUGUGUUCCGAAGGAGCGAGAUUUAUCUCAGGUAGGUCGCGGAACUUGAGUGAUGUUCAUGUAUAAA [KL-XArg-A9 #analogue] | 408
